# Results reported in the DeepSol protein solubility set.
# Assay: soluble on expression in E. coli; label from the status in PepcDB or PDB records
row,Sequence,soluble on expression in E. coli
1,MSDVAETLDPLRLPLQGERLIEASAGTGKTFTIAALYLRLLLGLGGSAAFPRPLTVEELLVVTFTEAATAELRGRIRSNIHELRIACLRETTDNPLYERLLEEIDDKAQAAQWLLLAERQMDEAAVFTIHGFCQRMLNLNAFESGMLFEQQLIEDESLLRYQACADFWRRHCYPLPREIAQVVFETWKGPQALLRDINRYLQGEAPVIKAPPPDDETLASRHAQIVARIDTVKQQWRDAVGELDALIESSGIDRRKFNRSNQAKWIDKISAWAEEETNSYQLPESLEKFSQRFLEDRTKAGGETPRHPLFEAIDQLLAEPLSIRDLVITRALAEIRETVAREKRRRGELGFDDMLSRLDSALRSESGEVLAAAIRTRFPVAMIDEFQDTDPQQYRIFRRIWHHQPETALLLIGDPKQAIYAFRGADIFTYMKARSEVHAHYTLDTNWRSAPGMVNSVNKLFSQTDDAFMFREIPFIPVKSAGKNQALRFVFKGETQPAMKMWLMEGESCGVGDYQSTMAQVCAAQIRDWLQAGQRGEALLMNGDDARPVRASDISVLVRSRQEAAQVRDALTLLEIPSVYLSNRDSVFETLEAQEMLWLLQAVMTPERENTLRSALATSMMGLNALDIETLNNDEHAWDVVVEEFDGYRQIWRKRGVMPMLRALMSARNIAENLLATAGGERRLTDILHISELLQEAGTQLESEHALVRWLSQHILEPDSNASSQQMRLESDKHLVQIVTIHKSKGLEYPLVWLPFITNFRVQEQAFYHDRHSFEAVLDLNAAPESVDLAEAERLAEDLRLLYVALTRSVWHCSLGVAPLVRRRGDKKGDTDVHQSALGRLLQKGEPQDAAGLRTCIEALCDDDIAWQTAQTGDNQPWQVNDVSTAELNAKTLQRLPGDNWRVTSYSGLQQRGHGIAQDLMPRLDVDAAGVASVVEEPTLTPHQFPRGASPGTFLHSLFEDLDFTQPVDPNWVREKLELGGFESQWEPVLTEWITAVLQAPLNETGVSLSQLSARNKQVEMEFYLPISEPLIASQLDTLIRQFDPLSAGCPPLEFMQVRGMLKGFIDLVFRHEGRYYLLDYKSNWLGEDSSAYTQQAMAAAMQAHRYDLQYQLYTLALHRYLRHRIADYDYEHHFGGVIYLFLRGVDKEHPQQGIYTTRPNAGLIALMDEMFAGMTLEEA,soluble
2,MPRPSQRLLSPEIITEAAMRMVDLTGDFTMPGLAERLKVRPSSLYNHVSGRAEIIELMRARMMAGIVVADPDGKWSETVAGLAREYRRNYAEHPRLIPLFTAHTVQSGVAFGLYNALAQAFSDGGFTPEEILHAITTVDSFVLGSALDLAAPEVVWATAPEANEAMLAALATSGPNPGRADAAFEFGLRTLIAGLVAQAPIEP,not soluble
3,MGSDKIHHHHHHMFSKSLEALHHAKRYRKRELFDPLLKDYASNDYLGLSVKKDLLQNAFNKLQSFVSHSPKASMLVNGYHPLHAELEERLANLLGFESALLVGSGFLGNLALIDTLLVKNALLFMDAHYHASGIFSTKIKPNQVIFFSHNDIKDLKQKLFNAPKNKIKFIAIEGVYSMDASVAPYDFYAIIQEIPNAFLIVDEAHSFGTIGENLLGFLEYYRIKEKDKIIKLSTFSKALASYGACILAPLQTIEFLTNRAKSVIYTTALSLLDTALTLAHLEYFIVQKQELKNELSKHQQIIFETLGIRTLAGFFTLEFESNPALLNAHHFLKEKGFLVGAIRPPTVSKPLLRVSLSLKNSLEDTKELANTLLNYSKIQSSFKSG,not soluble
4,MADEVIEYKFICPNITIYRESLQHLYTSFAKGLKCVWKTRNTSGQTFFSWEFDLNELKNQGIDGLMGRISVNSDSIDLLNVQIDLKNSTEIIERVVHLYHNNYQYGYNYIPSATFEYSFVPYYAQAEGSLYDQMFLPSHENDAILVIGKKKLHVCKAFLSYHSSFFRAIFSSTFKEGQMSEIPIKDVTYKDFALMLSTIYPDAVFPNDRTAEKLLEMGDRFIIQSVINHVEYHLLHNTKIGNEKLMWMADRYGMSKLLVKSIRQMDSIEKAKALKSSPDYAKLSKEAKEKILDRLMALI,not soluble
5,MEKSEIQKVDQVIRAWLEDEPLMYERLLEVEALEALPQVLGPLYKFLGRSRIHDGVLYLTFNSSVVRSQLSNNKAELLLRLNTAVDAELIRQIVFL,not soluble
6,MSLSNYWLGLDCGGSWLKAGLYDGAGREVAVQRLPLHALSPQPGWVERDMTELWQQCASVISKLLAHTGVSGSQIRGLGISAQGKGLFLLDKSDRPLGKAILSSDRRAMEIVQRWQKEAVPQKLYPLTRQTLWTGHPVSLLRWVKENEPQRYAQIGCVMMTHDYLRWCLTGVKGCEESNISESNLYNMATGQYDPRLTEWLGISEIDSALSPVVGSAEICGEITAQAAAITGLAAGTPVVGGLFDVVSTALCAGIEDESTLNAVMGTWAVTSGIAHGLRDHEAHPYVYGRYVNDGQYIVHEASPTSSGNLEWFTAQWGDLSFDEINQAVASLPKAGSDLFFLPFLYGSNAGLEMTCGFYGMQALHNRAHLLQALYEGVVFSHMTHLNRMRERFTEVCALRVTGGPAHSDVWMQMLADVSGLRIELPQVEETGCFGAALAARVGTGVYRDFREAQRDLQHPVRTLLPDMTAHALYQRKYRQYQDLIEALQGYHARIKEHALEGHHHHHH,soluble
7,MSSPRHVFYISDRTGLTAENIGEALLNQFGNLSFKRHTHPFVDTPEKARAVVEKVNRSRQENGQRPIAFVSVVDDEIRRIIKGADAFQINFFETFLGLLEKELNTEATASGQGHHSIGNTKRYDARMEAVNFSLNHDDGVSDKNLQEADVILMGVSRSGKTPTCLYLALQYGIRAANYPLIPDDLESADLPRMVKPYRDKLFGLTIQPERLQAIRQERRPNSTYAKIDTCRSEVADAQSMFRRHGIPFANTTDKSVEELAVHILQACKLKRRF,not soluble
8,MGSDKIHHHHHHMSRPKILYFITEDWYFCSHRLPLALAARDAGYDVAVVTNVNEHADVIRRAGIRLIPFDLSRKGMNPASELAVLARLIALYRKEKPDIVHQVAMKPVLYGSLAARLSGVSRVVNALAGLGYIFTSDQPKARFLRPVIGSAFRGLLNSRRSRLILQNQDDRAKFIRKRFISEKRIRLIRGSGVDTAVFVPTPEPPGVPVVILPSRMLWDKGVREFVDAAGQLKKRGISARFVLVGDADPHNPSAIHTEQLTAWHAEGAVEWWGRRDDMPAVFEQSHIVCLPSYREGLPKVLLEAASCGRPIVTTDTPGCRDVVRQGENGLLVPVRGTAELADALQLLIEQPALRKKMGCKGREIVVSEFALEKVVAKTMNIYRELLKP,not soluble
9,MVKRREAFEIEGKRVIAGSQMGIKLPAAKLYTDTQLDIHVEVFHGVKPGPTLLVCAAIHGDELNGIEICRRLLGRVNPKNLAGTLIVVPIVNVFGFIQQSRYLPDRRDLNRCFPGSSKGALASRLANLFATQLLVHATHVIDLHTGAIHRDNLPQIRCDTNDETMLAMANAFGAPLIMHSKARSVSMRGYANQQGIPCILYEAGEALRFSELAIKSGLKGVLNVMRSLGMLKGRVSNKIASVSAIRSYWIRSESDGLVNMKLKLGQRVNKGYIIAHIVSPHGGDSVAIRAPTDGIIIGISNIPVTNEGEGMFHIAQFEGDEIEIANEQLDEFLMEYA,not soluble
10,MSLKHPDPAQKVEGTTATTPTKVAAFFDLDKTIIAMSSTYAYGREFMNSGLISPVEALQLSLAQATYMFAGHTSEQMDNTRDQLTAMIRGWEVQQVRSIAEETMHSVVTPTIYAEARELIEHHQELGHDVIIISASVKELVEPIARELGVHKTVTTVLEAHDGMYTGEVLFYCKGDAKAQSILDLAEANNYDLSLSFAYSDSFTDLPMLEAVGNPAAVNPDRALKKIALEQGWKILSFKNPEPLFQEGHHHHHH,soluble
11,MSLNRLSIPYSNKSLDYYFFVIQEASVKRAVLARSGEFQATNANFDNTRQLEQWQSLLLSRPSAIISDPIDSQAIVSAIRRYNREKIPVGIIDTPADGGDVAITVSFDNFQGGVMAAEEIVNRLITRYGRPKGTVLNCYGALASVAWRLRKEGMDSVFAKYPGITYLARPTDGQLEKMLSVTLSTLSEYPDLDAVHAPSDSPSRGIVTALQQKGRWKKIGEAGHVIFVNIDGEPIALKWIQDGYMDACISQDPVAYGEIAVDMIVKHALKGEAVPLGTYQDKKYFWESGEGHHHHHH,not soluble
12,MWLLQLMQQQHSIDMMKKQGLKLEAQDLYNPNGVSLKDAVGIFGGGCTGEIISPEGLILTNHHCGYSSIQQHSSVEHDYLTDGFWATSRDQELPTPGLKFTFIERIEDITDIVNAKIAAKEITESQSFTGAFLEGLAKELYEKSDLKDKKGIVPQALPFYAGNKFYLFYKKIYPDVRMVAAPPSSVGKFGGETDNWMWPRHTGDFSMFRIYADANGEPAEYSASNTPLKTKKHLSISIKGLKEGDYAMIMGFPGRTSRYLTVSEVKERMESTNEPRIRIRGARLAVLKEVMNASDKIRIQYANKYAGSSNYWKNSIGMNKAIIDNDVLGTKAEQEAKFAEYAKAQNNTEYANVVKKIDDLVAQTAPLNYQLTCLTEVFFGAIEFGNSMLTKTREALVDKNDSLIKVRLEGLKENFKSIHNKDYDHEVDRKVAKALLPLYAEMIPANQRPAIYKVIEQKYKGDYNKFVDDMYDKSIFANQANFDKFLKKPTVKAIDEDLALQYAQSKYDQYGNLLDQLKELDKELALLHKTYIRGLGEMKLPVPSYPDANFTIRLTYGNVKPYDPKDGVHYNYYTTTKGILEKENPEDREFVVPAKLKELIEKKDYGRYALPNGDMPVCFLSTNDITGGNSGSPVLNENGELIGCAFDGNWESLSGDINFDNNLQRCINLDIRYVLFILEKLGNCGHLINEMTIVE,not soluble
13,MAHHHHHHMTFPSVQSSVHLYSNVVELAIRYTDLCAFCGRKAHEGENGSTKGDRAETSGSWHFHLARSKEPIAVSCLHAIMQRTNILGGRVNLFFTFERVPPFGGHKSRAVIQLASFHYSKNMRLCLNVAYLPQEEVRLKTVRAHVDSDCNVLEVACWRVFVFLGRST,not soluble
14,MNLNPAHINEPVQKEFLSVIKEYERVIYKVCYLYTTRNATLGDLYQEVILNLWKAYPKFRKECKISTWIYRIALNTCISFIRKEKNVPEIVALTREADWMTEEKDELTEMLRQLYRMINQLGQLDKSIVLLYLEEKSYEEIAEITGLTVTNVATKLSRIKDKLKKMKKEE,not soluble
15,MGSDKIHHHHHHMKIALIATEKLPVPSVRGGAIQIYLEAVAPLIAKKHEVTVFSIKDPNLADREKVDGVHYVHLDEDRYEEAVGAELKKSRFDLVHVCNRPSWVPKLKKQAPDAVFILSVHNEMFAYDKISQAEGEICIDSVAQIVTVSDYIGQTITSRFPSARSKTKTVYSGVDLKTYHPRWTNEGQRAREEMRSELGLHGKKIVLFVGRLSKVKGPHILLQALPDIIEEHPDVMMVFIGSKWFGDNELNNYVKHLHTLGAMQKDHVTFIQFVKPKDIPRLYTMSDVFVCSSQWQEPLARVHYEAMAAGLPIITSNRGGNPEVIEEGKNGYIIHDFENPKQYAERINDLLSSSEKRERLGKYSRREAESNFGWQRVAENLLSVYEKNR,not soluble
16,SPPPKAGLPLQQELASGSALVTDQNTGKVLYSRNPDLVVPIASITKLMTAMVVLDSKLPLDEVLPIAISETSEMRGVFSRVRVGSQISRRDMLLLALMSSENRAAASLAQNYPGGKNAFVKAMNAKAHALGMKNTRYVEPTGLSLHNVSTARDLTRLLVASRQYPLLSQWSTTPEKTVAFRHPNYTLGFRNTNHLINNKTWNIQLTKTGFTNEAGHCLVMRTTINRSPVNLVVLDAFGKYTHFADATRLRRWLETGQVTAIPAAAKAYRLQRDRERGLGQPVAQAVR,soluble
17,MVTVAVPKERAPGERRVALVPEVVARLVKGGARVRVERGAGEGAYHPDEAYQEAGAEVVERGELLKGAHLLFTVQPPPEDLIQALEPGAIVVGFVQPHKNLELVRALQAKKATVIAMELIPRITRAQSMDALSSQATVAGYLAAIHAARLSPRFFPMLTTAAGTIRPAKVMVMGVGVAGLMAIATAKRLGAQVFAYDVRKAALEQALSLGAKPIELPISAEGEGGYARELTEEEKRIQHEALRDHVAGMDVLITTAQVPGRRAPILLTEDMVERLKPGTVVVDLAAESGGNCVLTKPGEVVEVRGVRVYGPLNLPSELSVHASEMYAKNLYNLSSLLIEKGAFAPKWEDEIVRAALLMKEGEVLHGPTKALLGGA,soluble
